Data reported in paper doi:10.1101/2022.08.09.503213 (bioRxiv, 2022).

Molecular target: IFT140 with C-terminal TEV site and Strep-tag II (IFT140^Strep) (human, UniProt Q96RY7 1-1462)
Test: pull-down

IFT140 with C-terminal TEV site and Strep-tag II (IFT140^Strep), sequence (Q96RY7 whole entry): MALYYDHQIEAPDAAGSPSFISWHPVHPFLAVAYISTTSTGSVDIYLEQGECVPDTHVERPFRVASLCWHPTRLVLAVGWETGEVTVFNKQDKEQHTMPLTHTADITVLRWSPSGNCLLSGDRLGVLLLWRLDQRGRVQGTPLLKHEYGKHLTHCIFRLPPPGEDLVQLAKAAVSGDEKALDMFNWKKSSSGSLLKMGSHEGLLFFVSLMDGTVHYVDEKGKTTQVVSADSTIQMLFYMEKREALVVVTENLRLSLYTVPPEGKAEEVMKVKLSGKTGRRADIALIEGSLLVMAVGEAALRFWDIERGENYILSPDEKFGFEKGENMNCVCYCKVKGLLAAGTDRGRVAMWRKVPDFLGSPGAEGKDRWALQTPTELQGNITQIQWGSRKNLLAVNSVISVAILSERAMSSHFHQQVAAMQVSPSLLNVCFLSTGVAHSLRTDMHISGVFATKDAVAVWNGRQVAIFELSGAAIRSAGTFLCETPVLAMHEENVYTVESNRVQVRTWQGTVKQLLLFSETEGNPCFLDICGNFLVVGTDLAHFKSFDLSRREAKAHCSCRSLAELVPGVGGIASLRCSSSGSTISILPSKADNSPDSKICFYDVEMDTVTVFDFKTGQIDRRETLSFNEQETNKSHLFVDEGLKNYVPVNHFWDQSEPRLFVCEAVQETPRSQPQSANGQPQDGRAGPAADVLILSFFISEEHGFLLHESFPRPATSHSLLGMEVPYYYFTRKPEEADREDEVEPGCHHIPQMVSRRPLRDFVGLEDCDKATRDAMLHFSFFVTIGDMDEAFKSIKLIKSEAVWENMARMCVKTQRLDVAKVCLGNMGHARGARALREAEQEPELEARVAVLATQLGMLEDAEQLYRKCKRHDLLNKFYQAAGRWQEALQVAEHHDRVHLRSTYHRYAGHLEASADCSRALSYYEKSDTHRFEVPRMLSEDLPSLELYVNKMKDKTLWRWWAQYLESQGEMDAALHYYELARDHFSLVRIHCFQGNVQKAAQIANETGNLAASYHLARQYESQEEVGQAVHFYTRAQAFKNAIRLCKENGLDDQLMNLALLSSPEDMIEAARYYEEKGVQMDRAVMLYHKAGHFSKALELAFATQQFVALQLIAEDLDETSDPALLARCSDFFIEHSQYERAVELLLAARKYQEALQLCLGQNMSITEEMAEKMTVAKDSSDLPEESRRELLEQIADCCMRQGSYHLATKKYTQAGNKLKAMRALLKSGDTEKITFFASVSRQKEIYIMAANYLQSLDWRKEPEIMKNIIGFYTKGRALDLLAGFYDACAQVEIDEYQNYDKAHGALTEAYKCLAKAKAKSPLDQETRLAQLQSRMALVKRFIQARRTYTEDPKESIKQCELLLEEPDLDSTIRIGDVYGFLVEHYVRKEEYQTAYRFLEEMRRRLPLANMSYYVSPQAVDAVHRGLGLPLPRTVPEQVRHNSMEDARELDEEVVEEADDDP

B1: IFT144 with C-terminal TEV site and FLAG tag (IFT144^FLAG) (natural protein, human, UniProt Q8NEZ3 1-1342, looked up)
chain: MKRIFSLLEKTWLGAPIQFAWQKTSGNYLAVTGADYIVKIFDRHGQKRSEINLPGNCVAMDWDKDGDVLAVIAEKSSCIYLWDANTNKTSQLDNGMRDQMSFLLWSKVGSFLAVGTVKGNLLIYNHQTSRKIPVLGKHTKRITCGCWNAENLLALGGEDKMITVSNQEGDTIRQTQVRSEPSNMQFFLMKMDDRTSAAESMISVVLGKKTLFFLNLNEPDNPADLEFQQDFGNIVCYNWYGDGRIMIGFSCGHFVVISTHTGELGQEIFQARNHKDNLTSIAVSQTLNKVATCGDNCIKIQDLVDLKDMYVILNLDEENKGLGTLSWTDDGQLLALSTQRGSLHVFLTKLPILGDACSTRIAYLTSLLEVTVANPVEGELPITVSVDVEPNFVAVGLYHLAVGMNNRAWFYVLGENAVKKLKDMEYLGTVASICLHSDYAAALFEGKVQLHLIESEILDAQEERETRLFPAVDDKCRILCHALTSDFLIYGTDTGVVQYFYIEDWQFVNDYRHPVSVKKIFPDPNGTRLVFIDEKSDGFVYCPVNDATYEIPDFSPTIKGVLWENWPMDKGVFIAYDDDKVYTYVFHKDTIQGAKVILAGSTKVPFAHKPLLLYNGELTCQTQSGKVNNIYLSTHGFLSNLKDTGPDELRPMLAQNLMLKRFSDAWEMCRILNDEAAWNELARACLHHMEVEFAIRVYRRIGNVGIVMSLEQIKGIEDYNLLAGHLAMFTNDYNLAQDLYLASSCPIAALEMRRDLQHWDSALQLAKHLAPDQIPFISKEYAIQLEFAGDYVNALAHYEKGITGDNKEHDEACLAGVAQMSIRMGDIRRGVNQALKHPSRVLKRDCGAILENMKQFSEAAQLYEKGLYYDKAASVYIRSKNWAKVGDLLPHVSSPKIHLQYAKAKEADGRYKEAVVAYENAKQWQSVIRIYLDHLNNPEKAVNIVRETQSLDGAKMVARFFLQLGDYGSAIQFLVMSKCNNEAFTLAQQHNKMEIYADIIGSEDTTNEDYQSIALYFEGEKRYLQAGKFFLLCGQYSRALKHFLKCPSSEDNVAIEMAIETVGQAKDELLTNQLIDHLLGENDGMPKDAKYLFRLYMALKQYREAAQTAIIIAREEQSAGNYRNAHDVLFSMYAELKSQKIKIPSEMATNLMILHSYILVKIHVKNGDHMKGARMLIRVANNISKFPSHIVPILTSTVIECHRAGLKNSAFSFAAMLMRPEYRSKIDAKYKKKIEGMVRRPDISEIEEATTPCPFCKFLLPECELLCPGCKNSIPYCIATGRHMLKDDWTVCPHCDFPALYSELKIMLNTESTCPMCSERLNAAQLKKISDCTQYLRTEEEL
binding result: binds
